For experiment [1], the target named is DMA-1::GFPnovo2 (C. elegans). The experiment is described as follows: FRET or BRET.
In the next experiment the target is DMA-1::RFP (C. elegans). The experiment is described as follows: single molecule pull-down.

Drawing on paper PMC6292511, this text covers fraction of DMA-1::GFPnovo2 bound to HPO-30::mCherry and percent of DMA-1::RFP speckles co-localized with HPO-30::GFP for two substances.

Regarding HPO-30::mCherry (natural protein), the fraction of DMA-1::GFPnovo2 bound to HPO-30::mCherry in experiment [1] came to 30%.
In the experiment with DMA-1::RFP (C. elegans), HPO-30::GFP (natural protein) yielded a percent of DMA-1::RFP speckles co-localized with HPO-30::GFP of 56.1%.
